Results taken from publication PMC7484505, “Uncoupling sodium channel dimers restores the phenotype of a pain‐linked Nav1.7 channel mutation” (British Journal of Pharmacology, 2020).

B1: hNav1.7^GFP (natural protein)
chain: not shown
notes: numbers count on: isoform 3; pCMV6-neo-hNav1.7, Klugbauer et al. 1995; also called hNav1.7/WT; source: X. laevis oocytes, cRNA injected, in detergent extract (cleared supernatant); not shown: GFP, C-terminal, kept
B2: hTRPV1^GFP (natural protein, human, UniProt Q8NER1-1 1-839, looked up)
chain: MKKWSSTDLGAAADPLQKDTCPDPLDGDPNSRPPPAKPQLSTAKSRTRLFGKGDSEEAFPVDCPHEEGELDSCPTITVSPVITIQRPGDGPTGARLLSQDSVAASTEKTLRLYDRRSIFEAVAQNNCQDLESLLLFLQKSKKHLTDNEFKDPETGKTCLLKAMLNLHDGQNTTIPLLLEIARQTDSLKELVNASYTDSYYKGQTALHIAIERRNMALVTLLVENGADVQAAAHGDFFKKTKGRPGFYFGELPLSLAACTNQLGIVKFLLQNSWQTADISARDSVGNTVLHALVEVADNTADNTKFVTSMYNEILMLGAKLHPTLKLEELTNKKGMTPLALAAGTGKIGVLAYILQREIQEPECRHLSRKFTEWAYGPVHSSLYDLSCIDTCEKNSVLEVIAYSSSETPNRHDMLLVEPLNRLLQDKWDRFVKRIFYFNFLVYCLYMIIFTMAAYYRPVDGLPPFKMEKTGDYFRVTGEILSVLGGVYFFFRGIQYFLQRRPSMKTLFVDSYSEMLFFLQSLFMLATVVLYFSHLKEYVASMVFSLALGWTNMLYYTRGFQQMGIYAVMIEKMILRDLCRFMFVYIVFLFGFSTAVVTLIEDGKNDSLPSESTSHRWRGPACRPPDSSYNSLYSTCLELFKFTIGMGDLEFTENYDFKAVFIILLLAYVILTYILLLNMLIALMGETVNKIAQESKNIWKLQRAITILDTEKSFLKCMRKAFRSGKLLQVGYTPDGKDDYRWCFRVDEVNWTTWNTNVGIINEDPGNCEGVKRTLSFSLRSSRVSGRHWKNFALVPLLREASARDRQSAQPEEVYLRQFSGSLKPEDAEVFKSPAASGEK
notes: human TRPV1, transcript variant 3, subcloned from pDONR201 into pNKS2; Used as mass marker on the native gel; calculated mass of the GFP-tagged protomer printed as 123 kDa; also called human TRPV1 (transient receptor potential cation channel subfamily V member 1); source: X. laevis oocytes, cRNA injected, in digitonin extract (cleared supernatant); not shown: GFP, C-terminal, kept

Target: the molecule itself
Assay: native gel or EMSA; hrCN-PAGE of digitonin extracts of cRNA-injected X. laevis oocytes (0.1 M sodium phosphate pH 8.0, 1 mM TCEP), non-denaturing conditions; GFP tags visualised by fluorescence scanning; masses judged against hTrpV1-GFP

| Protein | stoichiometry N |
| --- | --- |
| B1 | 2 |
| B2 | 4 |
